Where “and” joins values, the source holds several entries; their conditions need not be identical. Equal entries are not always repeated.
B1: Homo sapiens calcium homeostasis modulator 2 (HsCALHM2) (natural protein)
chain: MAALIAENFRFLSLFFKSKDVMIFNGLVALGTVGSQELFSVVAFHCPCSPARNYLYGLAAIGVPALVLFIIGIILNNHTWNLVAECQHRRTKNCSAAPTFLLLSSILGRAAVAPVTWSVISLLRGEAYVCALSEFVDPSSLTAREEHFPSAHATEILARFPCKENPDNLSDFREEVSRRLRYESQLFGWLLIGVVAILVFLTKCLKHYCSPLSYRQEAYWAQYRANEDQLFQRTAEVHSRVLAANNVRRFFGFVALNKDDEELIANFPVEGTQPRPQWNAITGVYLYRENQGLPLYSRLHKWAQGLAGNGAAPDNVEMALLPS
B2: Caenorhabditis elegans calcium homeostasis modulator protein CLHM-1 (CeCLHM-1) (natural protein)
chain: MTTSINSVVTVFQNVFTNHGSTLLNGILIATTVGGQSLVRKLTFSCPCAYPLNIYHSLVFMFGPTAALLLIGITVNSTTWKLAHGFFFRVRDTRHSWKTTCVSWIEVLIQSSVAPIAWLFVVFLDGGYYRCYRSHEFCLISDAILCKNSTILNSYASTSSFNKISDNGKYCPPCICVPNPTDASYLEAESQIYAWGLLLFSGVAAFLVITCNRMCDKYTLVQRQYVETYKNVETQKFDAVAKEHASQLAEHNARAFFGQKDWTKRDWDWVSGIPEVNNPLFARLRLIAAEKTQQTMYTPLQLWNDNKGYRIPQPDLQLTQIIVDETKED
B3: Oryzias latipes CALHM1 truncated at the C terminus (OlCALHM1EM) (domain or fragment)
chain: MDKFRMMFQFLQSNQESFMNGICGIMALASAQMYSSFEFSCPCMPEYNYTYGIGLLIIPPIWFFLLGFVLNNNVSVLAEEWKRPTGRRTKDPSVLRYMLCSITQRSLIAPAVWVSVTLMDGKSFLCAFSINLDIEKFGNASLVIGMTETEKLKFLARIPCKDLFEDNEVRVAATRYIKCISQACGWMFLLMMTFTAFLIRAIRPCFTQAAFLKTKYWSHYIDIERKMFDETCKEHAKSFAKVCIHQYFENISGEMQNFHRHQSKDTSDAEEEEKQRSDEDKLLGIKAQEDMNKVL
B4: Chimeric channel of the TMD from OlCALHM1 and the CTD from HsCALHM2 (OlCALHM1c) (other)
chain: MDKFRMMFQFLQSNQESFMNGICGIMALASAQMYSSFEFSCPCMPEYNYTYGIGLLIIPPIWFFLLGFVLNNNVSVLAEEWKRPTGRRTKDPSVLRYMLCSITQRSLIAPAVWVSVTLMDGKSFLCAFSINLDIEKFGNASLVIGMTETEKLKFLARIPCKDLFEDNEVRVAATRYIKCISQACGWMFLLMMTFTAFLIRAIRPCFTQASYRQEAYWAQYRANEDQLFQRTAEVHSRVLAANNVRRFFGFVALNKDDEELIANFPVEGTQPRPQWNAITGVYLYRENQGLPLYSRLHKWAQGLAGNGAAPDNVEMALLPS

Target: the molecule itself
Experiment: cryo-EM structure

Protein | stoichiometry N
B1 | 11
B2 | 9
B3 | 8
B4 | 8 and 9

From PMC7439320 (Science Advances, 2020)
